Target: Ad5 hexon with DogTag inserted at HVR5, on Ad-DogTag virions (human adenovirus 5 (Ad5)) (UniProt P04133)
Assay: SDS-PAGE gel shift

## DogCatcher fused to SARS-CoV-2 spike receptor-binding domain (DogCatcher-RBD) (from UniProt P0DTC2 319-532) (designed binder)
  percent of hexon covalently coupled (% of hexon monomers): 57

— PMC9364715
